Test results reported in PMC6637204, “Inactivating mutations and X-ray crystal structure of the tumor suppressor OPCML reveal cancer-associated functions” (Nature Communications, 2019).

What was measured:
[1] = gel filtration; conditions: glycan lost; control: wild type
[2] = Caspase-Glo 3/7 assay, SKOV3; conditions: glycan lost; control: wild type
[3] = MTS viability, R428 IC50, SKOV3; conditions: glycan lost; control: wild type
[4] = SYPRO Orange thermal shift assay; conditions: glycan lost; control: wild type
[5] = immunofluorescence confocal microscopy; conditions: glycan lost; control: wild type
[6] = recombinant secretion from insect cells; conditions: glycan lost; control: wild type
[7] = western blot, transduced SKOV3, PEA1, PEO1; conditions: glycan lost; control: wild type
[8] = biological target: the molecule itself; assay: SDS-PAGE without heat denaturation, western blot; extracts of transduced cells run without prior heat denaturation, anti-OPCML blot
[9] = biological target: the molecule itself; assay: SAXS; WT OPCML in 50 mM HEPES pH 7.5, 200 mM sodium chloride, 2% glycerol, 0.02% sodium azide; three concentrations merged; fit to dimer and monomer models
[10] = biological target: the molecule itself; assay: SEC; gel filtration; dilutions equilibrated 24 h, 50 µL on Superdex 200 10/30 GL at 0.5 mL/min; peak elution volume against concentration fit to a monomer-dimer equilibrium (dimer to monomers)
[11] = biological target: the molecule itself; assay: SEC-MALLS; samples at 1 µg/µL, 1 mL/min in PBS pH 7.4, room temperature

B1: OPCML: N70H (protein)
parent chain: MGVCGYLFLPWKCLVVVSLRLLFLVPTGVPVRSGDATFPKAMDNVTVRQGESATLRCTIDDRVTRVAWLNRSTILYAGNDKWSIDPRVIILVNTPTQYSIMIQNVDVYDEGPYTCSVQTDNHPKTSRVHLIVQVPPQIMNISSDITVNEGSSVTLLCLAIGRPEPTVTWRHLSVKEGQGFVSEDEYLEISDIKRDQSGEYECSALNDVAAPDVRKVKITVNYPPYISKAKNTGVSVGQKGILSCEASAVPMAEFQWFKEETRLATGLDGMRIENKGRMSTLTFFNVSEKDYGNYTCVATNKLGNTNASITLYGPGAVIDGVNSASRALACLWLSGTLLAHFFIKF
- other: aggregation [1]: increases
- other: R428-induced apoptosis [2]: abolishes
- other: sensitisation to AXL inhibitor [3]: abolishes
- stability_or_folding, Tm [4]: decreases
- localisation_or_trafficking [5]: no change
- expression_or_secretion [6]: decreases
- expression_or_secretion [7]: no change

B2: wild-type OPCML expressed in transduced cancer cells (natural protein, human, UniProt Q14982 28-322, looked up)
chain: GVPVRSGDATFPKAMDNVTVRQGESATLRCTIDDRVTRVAWLNRSTILYAGNDKWSIDPRVIILVNTPTQYSIMIQNVDVYDEGPYTCSVQTDNHPKTSRVHLIVQVPPQIMNISSDITVNEGSSVTLLCLAIGRPEPTVTWRHLSVKEGQGFVSEDEYLEISDIKRDQSGEYECSALNDVAAPDVRKVKITVNYPPYISKAKNTGVSVGQKGILSCEASAVPMAEFQWFKEETRLATGLDGMRIENKGRMSTLTFFNVSEKDYGNYTCVATNKLGNTNASITLYGPGAVIDGVN
notes: OPCML, human, WT cDNA from pENTR4 shuttled to pLenti CMV Puro DEST; GPI-anchored, membrane-localized; also called WT OPCML; WT; source: SKOV3, PEA1, PEO1 and HCT116 cells, stably transduced (lentivirus, pLenti CMV Puro DEST); on cells or in lysate
- stoichiometry N [8]: 2

B3: soluble recombinant wild-type OPCML (residues 36-316, D1-D3) (domain or fragment, human, UniProt Q14982 36-316, looked up)
chain: ATFPKAMDNVTVRQGESATLRCTIDDRVTRVAWLNRSTILYAGNDKWSIDPRVIILVNTPTQYSIMIQNVDVYDEGPYTCSVQTDNHPKTSRVHLIVQVPPQIMNISSDITVNEGSSVTLLCLAIGRPEPTVTWRHLSVKEGQGFVSEDEYLEISDIKRDQSGEYECSALNDVAAPDVRKVKITVNYPPYISKAKNTGVSVGQKGILSCEASAVPMAEFQWFKEETRLATGLDGMRIENKGRMSTLTFFNVSEKDYGNYTCVATNKLGNTNASITLYGPGA
modifications: N-linked glycans modelled at asparagines 70, 293 and 306
notes: OPCML, human, UniProt Q14982, residues 36-316 (D1-D3); also called WT OPCML; rOPCML; source: Hi5 insect cells, baculovirus, secreted; purified (protein A, thrombin digestion, negative protein A, HiTrap Q, SEC); not shown: Fc (human IgG1, UniProt P01857 residues 118-330, joined by ALVPRGS), C-terminal, cleaved
- stoichiometry N [9]: 2

B4: soluble recombinant OPCML R65L (residues 36-316) (domain or fragment, human, UniProt Q14982 36-316, looked up)
chain: ATFPKAMDNVTVRQGESATLRCTIDDRVTLVAWLNRSTILYAGNDKWSIDPRVIILVNTPTQYSIMIQNVDVYDEGPYTCSVQTDNHPKTSRVHLIVQVPPQIMNISSDITVNEGSSVTLLCLAIGRPEPTVTWRHLSVKEGQGFVSEDEYLEISDIKRDQSGEYECSALNDVAAPDVRKVKITVNYPPYISKAKNTGVSVGQKGILSCEASAVPMAEFQWFKEETRLATGLDGMRIENKGRMSTLTFFNVSEKDYGNYTCVATNKLGNTNASITLYGPGA
notes: OPCML, human, UniProt Q14982, residues 36-316 (D1-D3), clinical somatic mutation R65L; Same construct as m1 with R65L; PDB 5UV6 is the wild-type parent; ALVPR probably left at the C-terminus after thrombin (surmised); also called rR65L; source: Hi5 insect cells, baculovirus, secreted; purified (protein A, thrombin digestion, negative protein A, HiTrap Q, SEC); not shown: Fc (human IgG1, UniProt …)
- fold weaker Kd than WT OPCML [10]: ≥ 250 fold

B5: soluble recombinant OPCML P95R (residues 36-316) (domain or fragment, human, UniProt Q14982 36-316, looked up)
chain: ATFPKAMDNVTVRQGESATLRCTIDDRVTRVAWLNRSTILYAGNDKWSIDPRVIILVNTRTQYSIMIQNVDVYDEGPYTCSVQTDNHPKTSRVHLIVQVPPQIMNISSDITVNEGSSVTLLCLAIGRPEPTVTWRHLSVKEGQGFVSEDEYLEISDIKRDQSGEYECSALNDVAAPDVRKVKITVNYPPYISKAKNTGVSVGQKGILSCEASAVPMAEFQWFKEETRLATGLDGMRIENKGRMSTLTFFNVSEKDYGNYTCVATNKLGNTNASITLYGPGA
notes: OPCML, human, UniProt Q14982, residues 36-316 (D1-D3), clinical somatic mutation P95R; Same construct as m1 with P95R; PDB 5UV6 is the wild-type parent; ALVPR probably left at the C-terminus after thrombin (surmised); also called rP95R; source: Hi5 insect cells, baculovirus, secreted; purified (protein A, thrombin digestion, negative protein A, HiTrap Q, SEC); not shown: Fc (human IgG1, UniProt …)
- stoichiometry N [11]: 2
